Reference: patent JP2024044204A (dated 2024)
Residue numbers refer to the chain shown, from its start. In names and notes the source's numbering stands.

B1: 28G_1-GN (UT28K S55G) (antibody, V domains shown)
VH: QMQLVQSGPEVKKPGTSVKVSCKASGFTFSISAVQWVRQARGQRLEWIGWIVVGGGNTNYAQKFQERVTITRDMSTSTAYMELSSLRFEDTAVYYCAAPYCGGDCSDGFDIWGQGTMVTVSS
VL: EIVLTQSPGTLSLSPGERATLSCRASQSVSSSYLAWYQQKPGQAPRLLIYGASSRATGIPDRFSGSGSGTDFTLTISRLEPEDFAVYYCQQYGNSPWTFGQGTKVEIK
B2: 28G_6-GR (UT28K S55G, N57R) (antibody, V domains shown)
VH: B1 VH with N57R
VL: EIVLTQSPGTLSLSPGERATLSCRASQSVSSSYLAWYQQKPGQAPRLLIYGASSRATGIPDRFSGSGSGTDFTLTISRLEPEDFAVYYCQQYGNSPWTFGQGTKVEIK
B3: 28G_8-GG (UT28K S55G, N57G) (antibody, V domains shown)
VH: B1 VH with N57G
VL: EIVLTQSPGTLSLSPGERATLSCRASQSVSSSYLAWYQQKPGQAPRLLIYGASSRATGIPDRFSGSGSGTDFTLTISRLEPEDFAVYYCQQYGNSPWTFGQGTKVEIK
B4: UT28K N57E (antibody, V domains shown)
VH: B1 VH with G55S, N57E
VL: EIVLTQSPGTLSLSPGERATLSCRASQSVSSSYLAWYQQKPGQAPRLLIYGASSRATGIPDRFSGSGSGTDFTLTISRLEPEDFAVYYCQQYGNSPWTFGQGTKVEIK
B5: 28G_3-SR (UT28K N57R) (antibody, V domains shown)
VH: B1 VH with G55S, N57R
VL: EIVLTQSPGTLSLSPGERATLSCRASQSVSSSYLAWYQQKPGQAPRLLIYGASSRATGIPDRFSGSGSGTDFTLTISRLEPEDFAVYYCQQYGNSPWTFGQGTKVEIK
B6: 4_12-SS/WT (UT28K N57S) (antibody, V domains shown)
VH: B1 VH with G55S, N57S
VL: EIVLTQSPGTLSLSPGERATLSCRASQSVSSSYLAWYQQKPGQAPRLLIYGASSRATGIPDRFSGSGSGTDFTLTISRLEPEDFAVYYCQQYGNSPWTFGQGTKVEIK
B7: 28G_5-SG (UT28K N57G) (antibody, V domains shown)
VH: B1 VH with G55S, N57G
VL: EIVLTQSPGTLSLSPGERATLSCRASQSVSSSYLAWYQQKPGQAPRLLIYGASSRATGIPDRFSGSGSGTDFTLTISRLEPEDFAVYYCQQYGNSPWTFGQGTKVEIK

Legend:
[1] = target: T1, SARS-CoV-2 RBD, Omicron strain (B.1.1.529 (BA.1)) (SARS-CoV-2 Omicron strain B.1.1.529 …, UniProt P0DTC2 319-541); experiment: ELISA of culture supernatant on Omicron RBD (Fig. 2-1)
T1 construct: also called Omicron-derived RBD; RBD protein (Omicron type)

[2] = target: T1, SARS-CoV-2 RBD, Omicron strain …; experiment: ELISA on Omicron RBD, 300 ng/ml antibody (Fig. 2-2)
[3] = target: T1, SARS-CoV-2 RBD, Omicron strain …; experiment: ELISA on Omicron RBD (supernatant, Fig. 2-1; 300 ng/ml, Fig. 2-2)

Binder | binding result [1] | binding result [3] | further results
B1 | no binding | – | –
B2 | no binding | – | –
B3 | no binding | – | –
B4 | – | – | binding result [2]: no binding (tested: 300 ng/ml (Fig. 2-2))
B5 | – | no binding (tested: 300 ng/ml (Fig. 2-2)) | –
B6 | – | no binding (tested: 300 ng/ml (Fig. 2-2)) | –
B7 | – | no binding (tested: 300 ng/ml (Fig. 2-2)) | –
